Assays:
[1] = target: lit-stabilized OptoMB variant (group of the BLI measurements in the light); assay: BLI
[2] = target: OptoMB_(C450V), light-insensitive, His-tagged, purified (Avena sativa) (UniProt O49003); assay: BLI

YFP-SH2, purified (fusion of yellow fluorescent protein and SH2), sequence (P00519 121-232): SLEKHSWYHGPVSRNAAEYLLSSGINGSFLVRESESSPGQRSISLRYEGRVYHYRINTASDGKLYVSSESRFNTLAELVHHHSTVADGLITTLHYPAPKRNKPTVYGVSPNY

“YFP-SH2, purified (fusion of yellow fluorescent protein and SH2) (from UniProt P00519 121-232) (domain or fragment)” was tested, and the Kd [1] was 11.2 µM, the fold change of kon, dark against light [1] was less than 46 fold and the fold increase of koff, light against dark [1] was less than 10 fold. For the same substance, the Kd [2] was 0.07 µM.

— paper doi:10.1101/2020.03.08.831909
